Experimental data taken from patent US20030092616A1, “STAT6 activation gene” (priority 2001, published 2003).

B1: 327 (nucleic acid, listed as Homo sapiens)
chain: TGTCGACGCCGCTGCCACCGCCTGCCTGAGAGAAGTCGTCGCGGCCGACCCCGTCGCCTCCGCCGGCTACCATGTCCGCCCAGGCGCAGATGCGGGCCCTGCTGGACCAGCTCATGGGCACGGCTCGGGACGGAGACGAAACCAGACAAAGGGTCAAGTTTACAGATGACCGTGTCTGCAAGAGTCACCTTCTGGACTGCTGCCCCCATGACATCCTGGCTGGGACGCGCATGGATTTAGGAGAATGTACCAAAATCCACGACTTGGCCCTCCGAGCAGATTATGAGATTGCAAGTAAAGAAAGAGACCTGTTTTTTGAATTAGATGCAATGGATCACTTGGAGTCCTTTATTGCTGAATGTGATCGGAGAACTGAGCTCGCCAAGAAGCGGCTGGCAGAAACACAGGAGGAAATCAGTGCGGAAGTTTCTGCAAAGGCAGAAAAAGTACATGAGTTAAATGAAGAAATAGGAAAACTCCTTGCTAAAGCCGAACAGCTAGGGGCTGAAGGTAATGTGGATGAATCCCAGAAGATTCTTATGGAAGTGGAAAAAGTTCGTGCGAAGAAAAAAGAAGCTGAGGAAGAATACAGAAATTCCATGCCTGCATCCAGTTTTCAGCAGCAAAAGCTGCGTGTCTGCGAGGTCTGTTCAGCCTACCTTGGTCTCCATGACAATGACCGTCGCCTGGCAGACCACTTCGGTGGCAAGTTACACTTGGGGTTCATTCAGATCCGAGAGAAGCTTGATCAGTTGAGGAAAACTGTCGCTGAAAAGCAGGAGAAGAGAAATCAGGATCGCTTGAGGAGGAGAGAGGAGAGGGAACGGGAGGAGCGTCTGAGCAGGAGGTCGGGATCAAGAACCAGAGATCGCAGGAGGTCACGCTCCCGGGATCGGCGTCGGAGGCGGTCAAGATCTACCTCCCGAGAGCGACGGAAATTGTCCCGGTCCCGGTCCCGAGATAGACATCGGCGCCACCGCAGCCGTTCCCGGAGCCACAGCCGGGGACATCGTCGGGCTTCCCGGGACCGAAGTGCGAAATACAAGTAACTACTCTGACTCCTTCGGTAGCTGCAACCAGGGGTTCTCCAGAGAGCGGGCATCCAGAGAGGAGTCCTGGGAGAGCGGGCGGAGCGAGCGAGGGCCCCCGGACTGGAGGCTTGAGAGCTCCAACGGGAAGATGGCTTCACGGAGGTCAGAAGAGAAGGAGGCCGGCGAGATCTGAACCCGTCTCCCGGGTGCTGTAAATAGTCTGATAAACGTTCACACAGTCTAAAATTACCCTTTATATTTGCTGAATACAACTCATCTTTTGTAGTTTAAAATTTCTATTGTTTTGGAGCTAGCTGTGAGTTTCTAGAAGTGTACAGAGTTGCTCCTGTGTTCCCGGGTCATGTTGAGTAGGAATAAATAAATCTGATGCTGCCTCCTGAGGCTGCGGGGGGTTTCTGC
modifications: CDS (72)..(1046)
B2: 293 (nucleic acid, listed as Homo sapiens)
chain: GAGCATACACCGAGAGAGTGAGGAGCCAGACGACAAGCACACACTATGGCGCTGAAACGGATTAATAAGGAACTTAGTGATTTGGCCCGTGACCCTCCAGCACAATGTTCTGCAGGTCCAGTTGGGGATGATATGTTTCATTGGCAAGCCACAATTATGGGACCTAATGACAGCCCATATCAAGGCGGTGTATTCTTTTTGACAATTCATTTTCCTACAGACTACCCCTTCAAACCACCTAAGGTTGCATTTACAACAAGAATTTATCATCCAAATATTAACAGTAATGGCAGCATTTGTCTCGATATTCTAAGATCACAGTGGTCGCCTGCTTTAACAATTTCTAAAGTTCTTTTATCCATTTGTTCACTGCTATGTGATCCAAACCCAGATGACCCCCTAGTGCCAGAGATTGCACGGATCTATAAAACAGACAGAGATAAGTACAACAGAATATCTCGGGAATGGACTCAGAAGTATGCCATGTGATGCTACCTTAAAGTCAGAATAACCTGCATTATAGCTGGAATAAACTTTAAATTACTGTTCCTTTTTTGATTTTCTTATCCGGCTGCTCCCCTGATCAGACCTCATCTTTTTTAATTTTATTTTTTGTTTACCTCCCTCCATTCATTCACATGCTCATCTGAGAAGACTTAAGTTCTTCCAGCTTTGACAATAACTGCTTTTAGAAACTGTAAAGTAGTTACAAGAGAACAGTTGG
modifications: CDS (46)..(486)
B3: 295 (nucleic acid, listed as Homo sapiens)
chain: ACTCGTGCGTGAGGCGAGAGGAGCCGGAGACGAGACCAGAGGCCGAACTCGGGTTCTGACAAGATGGCCGGGCTGCCCCGCAGGATCATCAAGGAAACCCAGCGTTTGCTGGCAGAACCAGTTCCTGGCATCAAAGCCGAACCAGATGAGAGCAACGCCCGTTATTTTCATGTGGTCATTGCTGGCCCTCAGGATTCCCCCTTTGAGGGAGGGACTTTTAAACTTGAACTATTCCTTCCAGAAGAATACCCAATGGCAGCCCCTAAAGTACGTTTCATGACCAAAATTTATCATCCTAATGTAGACAAGTTGGGAAGAATATGTTTAGATATTTTGAAAGATAAGTGGTCCCCAGCACTGCAGATCCGCACAGTTCTGCTATCGATCCAGGCCTTGTTAAGTGCTCCCAATCCAGATGATCCATTAGCAAATGATGTAGCGGAGCAGTGGAAGACCAACGAAGCCCAAGCCATAGAAACAGCTAGAGCATGGACTAGGCTATATGCCATGAATAATATTTAAATTGATACGATCATCAAGTGTGCATCACTTCTCCTGTTCTGCCAAGACTTCCTCCTCTTTGTTTGCATTTAATGGACACAGTCTTAGAAACATTACAGAATAAAAAAGCCCAGACATCTTCAGTCCTTTGGTGATTAAATGCACATTAGCAAATCTATGTCTTGTCCTGATTCACTGTCATAAAGCATGAGCAGAGGCTAGAAGTATCATCTGGATTGTTGTGAAACGTTTAAAAGCAGTGGCCCCTCCCTGCTTTTATTCATTTCCCCCATCCTGGTTTAAGTATAAAGCACTGTGAATGAAGGTAGTTGTCAGGTTAGCTGCAGGGGTGTGGGTGTTTTTATTTTATTTTATTTTATTTTATTTTTGAGGGGGGAGGTAGTTTAATTTTATGGGCTCCTTTCCCCCTTTTTTGGTGATCTAATTGCATTGGTTAAAAGCAGCTAACCAGGTCTTTAGAATATGCTCTAGCCAAGTCTAACTTTATTTAGACGCTGTAGATGGACAAGCTTGATTGTTGGAACCAAAATGGGAACATTAAACAAACATCACAGCCCTCACTAATAACATTGCTGTCAAGTGTAGATTCCCCCCTTCAAAAAAAGCTTGTGACCATTTTGTATGGCTTGTCTGGAAACTTCTGTAAATCTTATGTTTTAGTAAAATATTTTTTGTTATTCT
modifications: CDS (64)..(519)
B4: 85 (nucleic acid, listed as Homo sapiens)
chain: ATTTCCGGTTCCGGCTGCGGGCCGGTGAAGATATGGCGGCGTCTGCGTCTGCAGCTGCAGGGGAGGAGGACTGGGTCCTTCCCTCTGAAGTTGAAGTATTGGAGTCCATCTATCTAGATGAACTACAGGTGATTAAAGGAAATGGCAGAACTTCACCATGGGAGATCTACATCACTTTGCATCCTGCCACTGCAGAGGACCAGGATTCACAGTATGTCTGCTTCACTCTGGTGCTTCAGGTCCCAGCAGAGTATCCCCATGAGGTGCCACAGATCTCTATCCGAAATCCCCGAGGACTTTCAGATGAACAGATCCACACGATCTTACAGGTGCTGGGCCACGTGGCCAAGGCTGGGCTGGGCACTGCCATGCTGTATGAACTCATTGAGAAAGGGAAGGAAATTCTCACAGATAACAACATCCCTCATGGCCAGTGTGTCATCTGCCTCTATGGTTTCCAGGAGAAGGAGGCCTTTACCAAAACACCCTGTTACCACTACTTCCACTGCCACTGCCTTGCTCGGTACATCCAGCACATGGAGCAAGAGCTGAAGGCACAAGGACAGGAGCAGGAACAGGAACGGCAGCATGCTACAACCAAACAGAAGGCAGTCGGTGTGCAGTGTCCAGTGTGCAGAGAGCCCCTCGTGTATGATCTTGCCTCACTGAAAGCAGCCCCTGAACCCCAACAGCCCATGGAGCTGTACCAGCCCAGTGCAGAGAGCTTGCGCCAGCAAGAAGAACGCAAGCGGCTCTACCAGAGGCAGCAGGAGCGGGGGGGAATCATTGACCTTGAGGCTGAGCGAAACCGATACTTCATCAGCCTTCAGCAGCCTCCTGCCCCTGCGGAACCTGAGTCAGCTGTAGATGTCTCCAAAGGATCCCAACCACCCAGCACCCTTGCAGCAGAACTATCCACCTCACCAGCCGTCCAATCCACTTTGCCACCTCCTCTGCCTGTGGCGACCCAGCACATATGTGAGAAGATTCCAGGGACCAGGTCAAATCAGCAAAGGTTGGGCGAAACCCAGAAAGCTATGCTAGATCCCCCCAAGCCCAGTCGAGGTCCCTGGCGACAGCCCGAACGGAGGCACCCAAAGGGAGGGGAGTGCCACGCCCCTAAAGGTACCCGTGACACCCAGGAACTGCCACCTCCTGAGGGGCCCCTCAAGGAGCCCATGGACCTAAAGCCAGAACCCCATAGCCAAGGAGTTGAAGGTCCTCCACAAGAGAAGGGGCCTGGCAGCTGGCAGGGGCCCCCACCCCGCAGGACTCGGGACTGTGTTCGCTGGGAGCGCTCTAAGGGCCGGACACCCGGTTCTTCCTACCCTCGCCTGCCTCGGGGCCAGGGAGCATACCGGCCTGGTACTCGGAGGGAGTCCCTGGGCCTGGAATCTAAGGATGGTTCCTAGCAGGACTTGGTGGGGGGAACAGGGAATTGGGGATGGGAGGGAGGCAATAAAGATATTTGGCCTTCTTTGGCTTTCTTTGCTT
modifications: CDS (33)..(1409)
B5: 89 (nucleic acid, listed as Homo sapiens)
chain: GTAGTGCGGCGCTGTTTAAAGATGGCGGCGGAGGAACCTCAGCAGCAGAAGCAGGAGCCGCTGGGCAGCGACTCCGAAGGTGTTAACTGTCTGGCCTATGATGAAGCCATCATGGCTCAGCAGGACCGAATTCAGCAAGAGATTGCTGTGCAGAACCCTCTGGTGTCAGAGCGGCTGGAGCTCTCGGTCCTATACAAGGAGTATGCTGAAGATGACAACATCTATCAACAGAAGATCAAGGACCTCCACAAAAAGTACTCGTACATCCGCAAGACCAGGCCTGACGGCAACTGTTTCTATCGGGCTTTCGGATTCTCCCACTTGGAGGCACTGCTGGATGACAGCAAGGAGTTGCAGCGGTTCAAGGCTGTGTCTGCCAAGAGCAAGGAAGACCTGGTGTCCCAGGGCTTCACTGAATTCACAATTGAGGATTTCCACAACACGTTCATGGACCTGATTGAGCAGGTGGAGAAGCAGACCTCTGTCGCCGACCTGCTGGCCTCCTTCAATGACCAGAGCACCTCCGACTACCTTGTGGTCTACCTGCGGCTGCTCACCTCGGGCTACCTGCAGCGCGAGAGCAAGTTCTTCGAGCACTTCATCGAGGGTGGACGGACTGTCAAGGAGTTCTGCCAGCAGGAGGTGGAGCCCATGTGCAAGGAGAGCGACCACATCCACATCATTGCGCTGGCCCAGGCCCTCAGCGTATCCATCCAGGTGGAGTACATGGACCGCGGCGAGGGCGGCACCACCAATCCGCACATCTTCCCTGAGGGCTCCGAGCCCAAGGTCTACCTTCTCTACCGGCCTGGACACTACGATATCCTCTACAAATAGGGCTGGCTCCAGCCCGCTGCTGCCCTGCTGCCCCCCTCTGCCAGGCGCTAGACATGTACAGAGGTTTTTCTGTGGTTGTAAATGGTCCTATTTCACCCCCTTCTTCCTGTCACATGACCCCCCCCCATGTTTTATTAAAGGGGGTGCTGGTGGTG
modifications: CDS (22)..(834)

Test system: STAT6
Test: Screening of full-length cDNA clones for promotion of STAT6 activation (luciferase reporter N4×8-luc)
Format: cell-based
Details: NIH3T3 cells cotransfected with N4×8-luc reporter and cDNA plasmid; 48 h culture, then mouse IL-4 0.5 ng/ml for 6 h
Procedure, shortened: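 Promotion of STAT6 activation scored as increase in luciferase signal over null-vector control cells. NIH3T3 cells carried N4×8-luc (100 ng) plus cDNA clone; after 48 h culture, 6 h stimulation with 0.5 ng/ml (final) mouse IL-4 preceded reading.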

| Molecule | Activity = (luciferase activity of the gene of each SEQ ID NO:)/(luciferase activity of pME18S-FL3) |
| --- | --- |
| B1 | 5.3 |
| B2 | 25.8 |
| B3 | 31.0 |
| B4 | 11.5 |
| B5 | 10.2 |
